Earlier results, collected in PMC6406280.

Molecular target: T1, thrombin (UniProt P00734+P00734)
Assay: not stated (cited; equals the aKi)
Details: no binding assay done in this paper (SEC, CD/UV melting, analysis of published structures); conditions of the cited assays not in the material

Row | Substance | Kd
1 | CGCCTAGGTTGGGTAGGGTGGTGGCG [NU172 (aaa)] | 0.29 nM

Molecular target: T1, thrombin
Assay: thrombin inhibition (apparent Ki)
Details: no binding assay done in this paper (SEC, CD/UV melting, analysis of published structures); conditions of the cited assays not in the material

Row | Substance | Ki
2 | CACTGGTAGGTTGGGTAGGGTGGGGCCAGTG [jja] | 1.2 nM
3 | CACTGGTAGGTTGGGTAGGGTGGTCCAGTG [jaa] | 1.34 nM
4 | CACTGGTAGGTTGGTGTGGTTGGGGCCAGTG [31-TBA (jjj)] | 0.34 nM
5 | CACTGGTAGGTTGGTGTGGTTGGTCCAGTG [jaj] | 14.2 nM
6 | CGCCTAGGTTGGGTAGGGTGGGGGGCG [aja] | 13.2 nM
7 | CGCCTAGGTTGGGTAGGGTGGTGGCG [NU172 (aaa)] | 0.29 nM
8 | CGCCTAGGTTGGTGTGGTTGGGGGGCG [ajj] | 48.6 nM
9 | CGCCTAGGTTGGTGTGGTTGGTGGCG [aaj] | 13.4 nM

Molecular target: T1, thrombin
Assay: not stated (cited)
Details: modified TBA, not described; no binding assay done in this paper (SEC, CD/UV melting, analysis of published structures); conditions of the cited assays not in the material

Row | Substance | Kd
10 | mTBA | 25 nM

Same assay, conditions: no binding assay done in this paper (SEC, CD/UV melting, analysis of published structures); conditions of the cited assays not in the material

Row | Substance | Kd
11 | CGCCTAGGTTGGGTAGGGTGGTGGCG [NU172 (aaa)] | 35 nM
12 | RE31 | 0.56 nM
